Test results reported in US5830755.
Each block holds one substance with its values, some of them ahead of it.

Key:
[1] = target: melanoma antigen presented by HLA-A1 on HLA-A1+, HLA-A2- melanoma cell lines (peptide not identified) (human)
[2] = target: melanoma antigen presented by HLA-A2 on HLA-A2+ melanoma cell lines (peptide not identified in the experiment) (human)
[3] = target: MART-1 antigen processed in the cell and presented by HLA-A2.1 (human) (UniProt Q16655)
[4] = target: gp100 antigen processed in the cell and presented by HLA-A2.1 (human) (UniProt P40967)
[5] = target: MART-1(22-30) peptide … pulsed on HLA-A2.1 T2 cells (human)
[6] = target: MART-1(26-35) peptide … presented by HLA-A2.1 (human)
[7] = target: MART-1(27-35) peptide … presented by HLA-A2.1 (human)
[8] = target: MART-1(27-36) peptide … presented by HLA-A2.1 (human)
[9] = target: MART-1(32-40) peptide … pulsed on HLA-A2.1 T2 cells (human)
[10] = target: gp100(457-465) peptide … presented by HLA-A2.1 (human)
[11] = target: 38 kD folate binding protein (FBP) (Homo sapiens (Human)) (UniProt P15328)
[12] = target: 38 kD folate binding protein (FBP) (Homo sapiens (Human)) (UniProt P15328); remark: listed apart in the source
[13] = target: 38 kD folate binding protein (FBP) (Homo sapiens (Human)) (UniProt P15328); remark: listed apart in the source
[14] = target: MART-1(27-35) peptide … presented by HLA-A2.1 (human); remark: listed apart in the source
[15] = target: MART-1(27-35) peptide … presented by HLA-A2.1 (human); remark: listed apart in the source
[16] = target: MART-1(22-30) peptide … pulsed on HLA-A2.1 T2 cells (human); remark: listed apart in the source
[17] = target: MART-1(26-35) peptide … presented by HLA-A2.1 (human); remark: listed apart in the source
[18] = target: MART-1(27-35) peptide … presented by HLA-A2.1 (human); remark: listed apart in the source
[19] = target: MART-1(27-36) peptide … presented by HLA-A2.1 (human); remark: listed apart in the source
[20] = target: gp100(280-288) peptide … presented by HLA-A2.1 (human)
[21] = target: melanoma antigen presented by HLA-A1 on HLA-A1+, HLA-A2- melanoma cell lines (peptide not identified) (human); remark: listed apart in the source
[22] = target: melanoma antigen presented by HLA-A2 on HLA-A2+ melanoma cell lines (peptide not identified in the experiment) (human); remark: listed apart in the source
[23] = target: MART-1 antigen processed in the cell and presented by HLA-A2.1 (human) (UniProt Q16655); remark: listed apart in the source
[24] = target: melanoma antigen presented by HLA-A1 on HLA-A1+, HLA-A2- melanoma cell lines (peptide not identified) (human); remark: listed apart in the source
[25] = target: melanoma antigen presented by HLA-A1 on HLA-A1+, HLA-A2- melanoma cell lines (peptide not identified) (human); remark: listed apart in the source
[26] = target: melanoma antigen presented by HLA-A2 on HLA-A2+ melanoma cell lines (peptide not identified in the experiment) (human); remark: listed apart in the source
[27] = target: CD3 on murine TIL (murine)

% lysis, 4 hour 51Cr release, E:T 40:1 [1]: 2 % lysis
% lysis, 4 hour 51Cr release, E:T 40:1 [2]: 68 % lysis
IFN-γ Secretion [3]: < 10 pg/mL
IFN-γ Secretion [4]: 451 pg/mL
GM-CSF released [5]: < 10 pg/mL
GM-CSF released [6]: 23 pg/mL
GM-CSF released [7]: 19 pg/mL
GM-CSF released [8]: 19 pg/mL
GM-CSF released [9]: < 10 pg/mL
GM-CSF released [10]: 240 pg/mL
Substance: TIL 1200 TCR (TIL 1200 clonotype, Vα9/Jα16/Cα and Vβ22.1/Dβ2.1/Jβ2.1/Cβ2)

% lysis, 4 hour 51Cr release, E:T 40:1 [1]: 1 % lysis
% lysis, 4 hour 51Cr release, E:T 40:1 [2]: 46 % lysis
Substance: TIL F2-2 TCR (TIL F2-2 clonotype, Vα17/Jα42/Cα and Vβ6.5/Dβ1.1/Jβ1.5/Cβ1)

pg mIFN-γ/ml/5 × 10^5 cells/16 hours [11]: 1010 pg/mL
Substance: Sp-γ chimeric receptor (scFv of anti-2,4,6 TNP MoAb Sp6 joined to the Fc receptor γ chain) (CAR)

mIFN-γ, pg/1.5 × 10^6 splenocytes/ml/48 hrs, fresh splenocytes [12]: 92 pg/mL
Substance: splenocytes of normal mice (cells without a defined receptor)

pg mIFN-γ/ml/5 × 10^5 cells/16 hours [11]: 16000 pg/mL
mIFN-γ, pg/1.5 × 10^6 splenocytes/ml/48 hrs, fresh splenocytes [12]: 1080 pg/mL
mIFN-γ, pg/1.5 × 10^6 splenocytes/ml/18 hrs, activated splenocytes [13]: 2830 pg/mL
Substance: MOv-γ chimeric receptor (scFv of MoAb MOv18 joined to the Fc receptor γ chain) (CAR)

pg mIFN-γ/ml/5 × 10^5 cells/16 hours [11]: 1640 pg/mL
Substance: nontransduced murine MC38 TIL (cells without a defined receptor)

% lysis, 4 hour 51Cr release, E:T 10:1 [1]: -2 % lysis
% lysis, 4 hour 51Cr release, E:T 10:1 [2]: 52 % lysis
IL-2 released [5]: < 10 pg/mL
IL-2 released [6]: 4060 pg/mL
IL-2 released [7]: 4760 pg/mL
IL-2 released [8]: 469 pg/mL
IL-2 released [9]: < 10 pg/mL
IL-2 released [10]: < 10 pg/mL
IL-2 released (pg/ml), HLA-A2+ melanoma cells loaded with peptide [14]: 540 pg/mL
concentration of peptide required to provide 50% of maximal IL-2 stimulation [15]: 50 to 200 nM
Substance: clone 5 TCR (TIL5 clonotype, Vα1/Jα49/Cα and Vβ7.3/Dβ2.1/Jβ2.1/Cβ2)

IFN-γ Secretion [16]: 21 pg/mL
IFN-γ Secretion [17]: 1120 pg/mL
IFN-γ Secretion [18]: 2330 pg/mL
IFN-γ Secretion [19]: 52 pg/mL
IFN-γ Secretion [20]: 1320 pg/mL
IFN-γ Secretion [21]: 27 pg/mL
IFN-γ Secretion [22]: 585 pg/mL
Substance: TIL 660 (uncloned TIL line) (cells without a defined receptor)

IFN-γ Secretion [3]: 986 pg/mL
IFN-γ Secretion [4]: 199 pg/mL
Substance: TIL 1143 (uncloned TIL culture) (cells without a defined receptor)

IFN-γ Secretion [20]: 15 pg/mL
GM-CSF released [5]: 21 pg/mL
GM-CSF released [6]: 6710 pg/mL
GM-CSF released [7]: 11900 pg/mL
GM-CSF released [8]: 614 pg/mL
GM-CSF released [9]: < 10 pg/mL
GM-CSF released [10]: 27 pg/mL
GM-CSF released [23]: 557 pg/mL
GM-CSF released [24]: < 10 pg/mL
Substance: TIL 1235 (uncloned TIL line) (cells without a defined receptor)

% lysis, 5 hr 51Cr release, E:T 20:1 [25]: 0 % lysis
% lysis, 5 hr 51Cr release, E:T 20:1 [26]: 94 % lysis
IFN-γ Secretion [3]: 1340 pg/mL
IFN-γ Secretion [4]: < 10 pg/mL
IFN-γ Secretion [16]: 18 pg/mL
IFN-γ Secretion [17]: 5250 pg/mL
IFN-γ Secretion [18]: 16500 pg/mL
IFN-γ Secretion [19]: 24 pg/mL
IFN-γ Secretion [20]: 21 pg/mL
IFN-γ Secretion [21]: 29 pg/mL
IFN-γ Secretion [22]: 2700 pg/mL
Substance: clone 1E2 TCR (TIL 1E2 clonotype, Vα25/Jα54/Cα and Vβ3.1/Dβ1.1/Jβ1.1/Cβ1)

% lysis, 5 hr 51Cr release, E:T 20:1 [25]: 0 % lysis
% lysis, 5 hr 51Cr release, E:T 20:1 [26]: 57 % lysis
IFN-γ Secretion [3]: 730 pg/mL
IFN-γ Secretion [4]: < 10 pg/mL
IFN-γ Secretion [16]: 16 pg/mL
IFN-γ Secretion [17]: 765 pg/mL
IFN-γ Secretion [18]: > 20000 pg/mL
IFN-γ Secretion [19]: 22 pg/mL
IFN-γ Secretion [20]: 19 pg/mL
IFN-γ Secretion [21]: 18 pg/mL
IFN-γ Secretion [22]: 772 pg/mL
Substance: clone A42 TCR (TIL A42 clonotype, Vα21/Jα42/Cα and Vβ7.3/Dβ2.1/Jβ2.7/Cβ2)

pg mIFN-γ/ml/5 × 10^5 cells/16 hours [27]: > 50000 pg/mL
Substance: 2C11 (anti-CD3) antibody

IFN-γ Secretion [3]: 121 pg/mL
IFN-γ Secretion [4]: < 10 pg/mL
Substance: TIL 501 (uncloned TIL culture) (cells without a defined receptor)

% lysis, 4 hour 51Cr release, E:T 40:1 [1]: 55 % lysis
% lysis, 4 hour 51Cr release, E:T 40:1 [2]: 0 % lysis
Substance: TIL C10-1 TCR (C10-1 T-cell clonotype, Vα8.2/Jα49/Cα and Vβ13.6/Dβ1.1/Jβ1.5/Cβ1)

IL-2 released [5]: < 10 pg/mL
IL-2 released [7]: < 10 pg/mL
IL-2 released [8]: < 10 pg/mL
IL-2 released [9]: < 10 pg/mL
IL-2 released [10]: < 10 pg/mL
Substance: Jurkat neo (non-transfected Jurkat cells with the endogenous Jurkat TCR, Vβ8)
